In publication PMC5713450:

How the values were obtained:
Protein A [1] = target: Protein A (UniProt P02976); assay: EIS; details: apparent; 2 mM ferri-/ferrocyanide; Hill h 1.14 +/- 0.15; 3' C6 spacer and thiol; immobilized on gold with MCH; BB: 100 mM NaCl, 20 mM Tris, 10 mM MgCl2, 5 mM KCl, 1 mM CaCl2, pH 7.6; MST in BBT (0.005% Tween 20) at 25 C, 2bind MST with 0.05% Tween 20; EIS in BB + 2 mM …
[2] = target: Protein A (cited studies) (UniProt P02976); assay: RIFTS; details: aptamer immobilized on porous silicon, h 2.61 +/- 0.69, 3' amino, BB: 100 mM NaCl, 20 mM Tris, 10 mM MgCl2, 5 mM KCl, 1 mM CaCl2, pH 7.6, MST in BBT (0.005% Tween 20) at 25 C, 2bind MST with 0.05% Tween 20, EIS in BB + 2 mM …; cited from earlier work
[3] = target: Protein A (cited studies) (UniProt P02976); assay: SPR; details: BB: 100 mM NaCl, 20 mM Tris, 10 mM MgCl2, 5 mM KCl, 1 mM CaCl2, pH 7.6, MST in BBT (0.005% Tween 20) at 25 C, 2bind MST with 0.05% Tween 20, EIS in BB + 2 mM …, cited from earlier work
[4] = target: Protein A (cited studies) (UniProt P02976); assay: ELONA; details: BB: 100 mM NaCl, 20 mM Tris, 10 mM MgCl2, 5 mM KCl, 1 mM CaCl2, pH 7.6; MST in BBT (0.005% Tween 20) at 25 C, 2bind MST with 0.05% Tween 20; EIS in BB + 2 mM …; cited from earlier work
Protein A [5] = target: Protein A (UniProt P02976); assay: MST; details: BB: 100 mM NaCl, 20 mM Tris, 10 mM MgCl2, 5 mM KCl, 1 mM CaCl2, pH 7.6, MST in BBT (0.005% Tween 20) at 25 C, 2bind MST with 0.05% Tween 20, EIS in BB + 2 mM …
[6] = target: Protein A (cited studies) (UniProt P02976); assay: MST; details: 5' thiol; BB: 100 mM NaCl, 20 mM Tris, 10 mM MgCl2, 5 mM KCl, 1 mM CaCl2, pH 7.6; MST in BBT (0.005% Tween 20) at 25 C, 2bind MST with 0.05% Tween 20; EIS in BB + 2 mM …; cited from earlier work

ATACCAGCTTATTCAATTAGCAACATGAGGGGGATAGAGGGGGTGGGTTCTCTCGGCT [PAA (PA#2/8[S1-58]), 3'-thiol on gold]
Kd (Protein A [1]): 18.5 nM

ATACCAGCTTATTCAATTAGCAACATGAGGGGGATAGAGGGGGTGGGTTCTCTCGGCT [PAA, 3'-amino]
Kd [2]: 14000 nM

ATACCAGCTTATTCAATTAGCAACATGAGGGGGATAGAGGGGGTGGGTTCTCTCGGCT [PAA, 3'-biotin]
Kd [3]: 287 nM
Kd [4]: 11.3 nM

ATACCAGCTTATTCAATTAGCAACATGAGGGGGATAGAGGGGGTGGGTTCTCTCGGCT [PAA, 3'-fluorescent]
Kd (Protein A [5]; BB + 0.05% Tween 20 (2bind), 3' C6 spacer, thiol): 111 nM
Kd (Protein A [5]; BBT + 2 mM ferri-/ferrocyanide, 3' C6 spacer, thiol): 16.4 nM
Kd (Protein A [5]; BBT, 0.005% Tween 20, no ferri-/ferrocyanide, 3' C6 spacer, thiol): 22.4 nM

ATACCAGCTTATTCAATTAGCAACATGAGGGGGATAGAGGGGGTGGGTTCTCTCGGCT [PAA, 5'-biotin]
Kd [4]: 23.7 nM

ATACCAGCTTATTCAATTAGCAACATGAGGGGGATAGAGGGGGTGGGTTCTCTCGGCT [PAA, 5'-fluorescent]
Kd ([3]; 5' thiol): 1920 nM
Kd (Protein A [5]; BB + 0.05% Tween 20 (2bind), 5' thiol): 116 nM
Kd [6]: 94.7 nM
